In the supplement of paper PMC10724198:
± gives the standard deviation of the averaged measurements.

Assays:
Saccharomyces cerevisiae [1] = experiment: protein stability index of tFT-peptide fusion (C-terminal peptide) (PSI (0-1 scale)); higher = more stable (slower turnover)
Procedure: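 MPS profiling in S. cerevisiae of the tFT-X12 degron library: putative degron peptides plus stable controls, 12 aa, fused to the C-terminus of a sfGFP-mCherry timer. Cells are FACS-sorted into 8 mCherry/sfGFP bins and deep-sequenced. PSI runs from 0 (unstable) to 1 (stable). Backgrounds are wild type, das1Δ and doa10Δ at 30 °C, and wild type, das1Δ, cdc34-1 and cdc53-1 at 37 °C; 2-3 technical replicates each.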

Saccharomyces cerevisiae [2] = experiment: as above; settings: genetic background: wild type; temperature: 30 C
[3] = genetic background: cdc34-1, temperature: 37 C
[4] = genetic background: cdc53-1, temperature: 37 C
[5] = genetic background: das1 deletion, temperature: 30 C
[6] = genetic background: das1 deletion, temperature: 37 C
[7] = genetic background: doa10 deletion, temperature: 30 C
[8] = genetic background: wild type, temperature: 30 C
[9] = genetic background: wild type, temperature: 37 C
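Also: PSI is a weighted mean of sequencing reads over stability bins, variants kept only with over 10 reads, mCherry proximal and sfGFP distal, peptide attached via GGGS linker.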

Row | Sequence | protein stability index (Saccharomyces cerevisiae [1]; [3]) | protein stability index (Saccharomyces cerevisiae [1]; [4]) | protein stability index (Saccharomyces cerevisiae [1]; [5]) | protein stability index (Saccharomyces cerevisiae [1]; [6]) | protein stability index (Saccharomyces cerevisiae [1]; [7]) | protein stability index (Saccharomyces cerevisiae [1]; [8]) | protein stability index (Saccharomyces cerevisiae [1]; [9]) | protein stability index (Saccharomyces cerevisiae [2])
1 | YDVQIEFCVVEV | 0.601 ± 0.035 | 0.57 ± 0.019 | 0.365 ± 0.03 | 0.5694 ± 0.0029 | 0.347 ± 0.004 | 0.379 ± 0.017 | 0.547 ± 0.019 | 0.442 ± 0.0093
2 | VCLFWLFLWRIL | 0.208 ± 0.018 | 0.167 ± 0.027 | 0.3 ± 0.027 | 0.374 ± 0.013 | 0.217 ± 0.014 | 0.182 ± 0.0051 | 0.241 ± 0.016 | 0.266 ± 0.0063
3 | VCPWGYCSEWGF | 0.772 ± 0.047 | 0.82244 ± 0.00034 | 0.697 ± 0.023 | 0.8015 ± 0.0031 | 0.692 ± 0.043 | 0.687 ± 0.014 | 0.7887 ± 0.006 | 0.759 ± 0.013
4 | LPPFGLFLFVFI | 0.437 ± 0.034 | 0.466 ± 0.0094 | 0.31 ± 0.044 | 0.517 ± 0.0074 | 0.274 ± 0.008 | 0.285 ± 0.029 | 0.498 ± 0.01 | 0.366 ± 0.018
5 | FFSQLFLEIVAA | 0.0642 ± 0.024 | 0.0709 ± 0.031 | 0.179 ± 0.03 | 0.196 ± 0.011 | 0.14 ± 0.018 | 0.175 ± 0.029 | 0.171 ± 0.027 | 0.257 ± 0.031
6 | GTLVFTYLVLRC | 0.0997 ± 0.012 | 0.0693 ± 0.0078 | 0.197 ± 0.02 | 0.252 ± 0.032 | 0.365 ± 0.027 | 0.167 ± 0.035 | 0.229 ± 0.0083 | 0.314 ± 0.008
7 | LRFFLPFLLSLP | 0.519 ± 0.043 | 0.596 ± 0.015 | 0.55 ± 0.036 | 0.6588 ± 0.0031 | 0.158 ± 0.0035 | 0.164 ± 0.022 | 0.292 ± 0.0041 | 0.2418 ± 0.0021
8 | CFCPILFPRCLA | 0.476 ± 0.048 | 0.636 ± 0.016 | 0.579 ± 0.045 | 0.6659 ± 0.0023 | 0.142 ± 0.017 | 0.139 ± 0.021 | 0.19 ± 0.013 | 0.25 ± 0.072
9 | VFSLAFYLVLFF | 0.326 ± 0.063 | 0.349 ± 0.0065 | 0.346 ± 0.025 | 0.46 ± 0.015 | 0.415 ± 0.011 | 0.319 ± 0.029 | 0.418 ± 0.037 | 0.343 ± 0.056
10 | GLSWRLVWVVII | 0.0421 ± 0.0072 | 0.0599 ± 0.011 | 0.132 ± 0.02 | 0.189 ± 0.0048 | 0.0916 ± 0.006 | 0.0531 ± 0.0056 | 0.0493 ± 0.0093 | 0.103 ± 0.011
11 | AGALAVALPCIC | 0.493 ± 0.011 | 0.506 ± 0.018 | 0.399 ± 0.03 | 0.531 ± 0.011 | 0.316 ± 0.0093 | 0.358 ± 0.028 | 0.48 ± 0.011 | 0.5 ± 0.046
12 | LCIRHFRLLELL | 0.5607 ± 0.0046 | 0.72 ± 0.014 | 0.642 ± 0.033 | 0.728 ± 0.041 | 0.165 ± 0.011 | 0.167 ± 0.016 | 0.268 ± 0.021 | 0.276 ± 0.0069
13 | LFLFFFLPPLLF | 0.4247 ± 0.0027 | 0.407 ± 0.0056 | 0.373 ± 0.025 | 0.484 ± 0.021 | 0.439 ± 0.018 | 0.366 ± 0.009 | 0.461 ± 0.026 | 0.446 ± 0.028
14 | GVVCWLVVTGFL | 0.3865 ± 0.0018 | 0.48 ± 0.0076 | 0.286 ± 0.058 | 0.524 ± 0.0095 | 0.255 ± 0.0087 | 0.3 ± 0.019 | 0.463 ± 0.052 | 0.429 ± 0.013
15 | YYFCMYFKVTLC | 0.0445 ± 0.006 | 0.15 ± 0.064 | 0.15 ± 0.028 | 0.285 ± 0.0044 | 0.0456 ± 0.019 | 0.043 ± 0.0087 | 0.0707 ± 0.042 | 0.0781 ± 0.03
16 | CASIVDGFAFRF | 0.752 ± 0.0086 | 0.782 ± 0.03 | 0.632 ± 0.011 | 0.786 ± 0.0097 | 0.646 ± 0.023 | 0.679 ± 0.046 | 0.7472 ± 0.0015 | 0.7662 ± 0.0074
17 | VWFGGFVCSVLG | 0.366 ± 0.019 | 0.361 ± 0.012 | 0.314 ± 0.028 | 0.4478 ± 0.0026 | 0.244 ± 0.0056 | 0.297 ± 0.026 | 0.415 ± 0.018 | 0.393 ± 0.039
18 | HCNRLIFWYKCT | 0.508 ± 0.082 | 0.745 ± 0.025 | 0.656 ± 0.052 | 0.723 ± 0.035 | 0.189 ± 0.0086 | 0.224 ± 0.032 | 0.298 ± 0.0068 | 0.288 ± 0.0074
19 | LYTFCSMDANPM | 0.397 ± 0.019 | 0.439 ± 0.011 | 0.439 ± 0.019 | 0.383 ± 0.033 | 0.488 ± 0.028 | 0.468 ± 0.0092 | 0.407 ± 0.04 | 0.4016 ± 0.0012
20 | FFVLGPVVMSIH | 0.278 ± 0.046 | 0.383 ± 0.032 | 0.285 ± 0.031 | 0.423 ± 0.02 | 0.2657 ± 0.0021 | 0.266 ± 0.038 | 0.4054 ± 0.0027 | 0.3849 ± 0.0033
21 | WVIWFFVAACLR | 0.219 ± 0.006 | 0.24 ± 0.018 | 0.209 ± 0.024 | 0.347 ± 0.025 | 0.239 ± 0.0077 | 0.212 ± 0.022 | 0.311 ± 0.0079 | 0.3339 ± 0.00096
22 | HNLIRKHAKESS | 0.63 ± 0.083 | 0.702 ± 0.0032 | 0.641 ± 0.034 | 0.699 ± 0.015 | 0.171 ± 0.036 | 0.249 ± 0.016 | 0.459 ± 0.054 | 0.394 ± 0.085
23 | VALAVRVVVCGA | 0.0316 ± 0.014 | 0.0354 ± 0.0067 | 0.122 ± 0.039 | 0.106 ± 0.0073 | 0.0887 ± 0.0097 | 0.108 ± 0.028 | 0.0779 ± 0.01 | 0.142 ± 0.041
24 | FLFFWRASLFFW | 0.116 ± 0.0025 | 0.164 ± 0.0095 | 0.183 ± 0.029 | 0.278 ± 0.027 | 0.178 ± 0.018 | 0.15 ± 0.029 | 0.191 ± 0.022 | 0.229 ± 0.023
25 | CGLYNQFCLFLY | 0.561 ± 0.04 | 0.626 ± 0.022 | 0.527 ± 0.018 | 0.6526 ± 0.0024 | 0.2274 ± 0.0022 | 0.217 ± 0.029 | 0.37 ± 0.0043 | 0.31 ± 0.027
26 | GGFLLRGLFLFL | 0.613 ± 0.032 | 0.652 ± 0.016 | 0.55 ± 0.024 | 0.6623 ± 0.0034 | 0.542 ± 0.025 | 0.52 ± 0.022 | 0.63 ± 0.015 | 0.525 ± 0.049
27 | SSAPTIVIWRFS | 0.672 ± 0.041 | 0.724 ± 0.026 | 0.592 ± 0.031 | 0.7 ± 0.0079 | 0.401 ± 0.024 | 0.428 ± 0.011 | 0.6081 ± 0.0015 | 0.495 ± 0.027
28 | WFSVFTMSILSR | 0.416 ± 0.026 | 0.479 ± 0.0075 | 0.338 ± 0.028 | 0.4963 ± 0.0024 | 0.334 ± 0.004 | 0.341 ± 0.018 | 0.474 ± 0.01 | 0.435 ± 0.0096
29 | PPPLLVRPWFLV | 0.618 ± 0.054 | 0.725 ± 0.013 | 0.612 ± 0.029 | 0.741 ± 0.024 | 0.147 ± 0.018 | 0.157 ± 0.019 | 0.269 ± 0.02 | 0.214 ± 0.05
30 | SASPFYLPPPPV | 0.709 ± 0.024 | 0.7371 ± 0.0058 | 0.679 ± 0.043 | 0.735 ± 0.017 | 0.675 ± 0.018 | 0.671 ± 0.023 | 0.731 ± 0.012 | 0.735 ± 0.024
